Results on one substance are retold here after article doi:10.1101/763847.

This assay deals with single-bond CDH23 fusion protein (EC1-5/EC3-5 Fc heterodimer with one EC1-2 binding domain) (mouse). The assay can be described thus: single-molecule dynamic force spectroscopy.

Turning to “single-bond PCDH15 fusion protein (EC1-5/EC3-5 Fc heterodimer with one EC1-2 binding domain) (Fc fusion)”, the force sensitivity fβ (force that accelerates the off-rate e-fold) is 14.3 pN; the koff (as a rule, the first-order rate constant of dissociation) turned out to be 0.62 s⁻¹; the mean lifetime (1/koff) at zero force is 1.6 s; the mean zero-force lifetime in 50 uM Ca2+ came to 0.87 s. In addition, the single-bond lifetime at a resting tension of 10 pN (calculated from the fit) is 1 s.
